Experimental data: patent US20130040894A1, “INHIBITION OR ACTIVATION OF SERINE/THREONINE ULK3 KINASE ACTIVITY” (TALLINN UNIVERSITY OF TECHNOLOGY, priority 2009, published 2013)

Test system: GLI-dependent firefly luciferase activity in Shh-LIGHT2 cells
Assay: GLI-dependent luciferase assay in Shh-L2 cells
Format: cell-based, mouse
Settings: for enhancement of transcriptional activity of overexpressed GLI1: cotransfected with GLI1, Shh-L2 cells; for enhancement of transcriptional activity of overexpressed GLI2: cotransfected with GLI2, Shh-L2 cells; for stimulation of GLI-dependent luciferase activity: kinase construct alone, Shh-L2 cells, normalized with β-galactosidase
Procedure: Cells were transfected by the expression constructs or respective empty vectors using Polyethylenimine transfection agent (PEI) (Inbio) and as described in [28]. We used 0.25 μg of cDNA per 1 cm^2 of plate surface area for transfections. After 3 h of transfection HEK293, NIH3T3 and Cos1 cells were propagated in the normal growth medium for 48 h. Prior the further analysis the cells were washed twice with PBS. Post-transfectional Shh-L2 cells were grown in the normal growth medium for 24 h and for additional 24 h in the Light medium containing 0.25% FBS, washed once with PBS, lysed in Passive Lysis Buffer (Promega, Madison Wis., USA) (70 ul per well of 24-well plate format) and subjected to luciferase assay.
Luciferase assay was performed as previously described. Briefly, firefly luciferase activity of 12 μl of the Shh-L2 cells lysate was measured using Luciferase Assay Kit (Promega) and galactosidase activity was quantified using Galacto-LightPlus kit (Tropix, Bedford Mass., USA) according to the manufacturer's instructions. Chemiluminicence was measured using Ascent FL Fluoroscan (Thermo Electron Corporation, Waltham Mass., USA) according to the manufacturer's instructions.
We cotransfected the constructs together with GLI-expressing plasmids (or respective empty vector) into Shh-L2 cells and assessed their effect on GLI-dependent firefly luciferase activity. The obtained data was normalized with β-galactosidase values. […] It was able to stimulate the luciferase activity 3.8 times and enhanced the transcriptional activity of over expressed GLI1 and GLI2 approximately 2 and 3.2 times, respectively. The potency of STK36 in the assay was much lower.
In order to examine if the kinase activity of ULK3 is required for the luciferase reporter activation we tested the supposed kinase-deficient variants of ULK3, ULK3(K44R) and ULK3(K139R) in the same assay. […] We also tested the effect of ULK3 and the mutants on the luciferase reporter when the SHH pathway was activated by cotransfection with pShhN (plasmid expressing biologically active part of SHH).

B1: ULK1: unc-51-like kinase 1, homologue of ULK3, overexpressed in Shh-L2 cells (protein, UniProt O75385 1-1050, looked up)
Serine/threonine-protein …: MEPGRGGTETVGKFEFSRKDLIGHGAFAVVFKGRHREKHDLEVAVKCINKKNLAKSQTLLGKEIKILKELKHENIVALYDFQEMANSVYLVMEYCNGGDLADYLHAMRTLSEDTIRLFLQQIAGAMRLLHSKGIIHRDLKPQNILLSNPAGRRANPNSIRVKIADFGFARYLQSNMMAATLCGSPMYMAPEVIMSQHYDGKADLWSIGTIVYQCLTGKAPFQASSPQDLRLFYEKNKTLVPTIPRETSAPLRQLLLALLQRNHKDRMDFDEFFHHPFLDASPSVRKSPPVPVPSYPSSGSGSSSSSSSTSHLASPPSLGEMQQLQKTLASPADTAGFLHSSRDSGGSKDSSCDTDDFVMVPAQFPGDLVAEAPSAKPPPDSLMCSGSSLVASAGLESHGRTPSPSPPCSSSPSPSGRAGPFSSSRCGASVPIPVPTQVQNYQRIERNLQSPTQFQTPRSSAIRRSGSTSPLGFARASPSPPAHAEHGGVLARKMSLGGGRPYTPSPQVGTIPERPGWSGTPSPQGAEMRGGRSPRPGSSAPEHSPRTSGLGCRLHSAPNLSDLHVVRPKLPKPPTDPLGAVFSPPQASPPQPSHGLQSCRNLRGSPKLPDFLQRNPLPPILGSPTKAVPSFDFPKTPSSQNLLALLARQGVVMTPPRNRTLPDLSEVGPFHGQPLGPGLRPGEDPKGPFGRSFSTSRLTDLLLKAAFGTQAPDPGSTESLQEKPMEIAPSAGFGGSLHPGARAGGTSSPSPVVFTVGSPPSGSTPPQGPRTRMFSAGPTGSASSSARHLVPGPCSEAPAPELPAPGHGCSFADPITANLEGAVTFEAPDLPEETLMEQEHTEILRGLRFTLLFVQHVLEIAALKGSASEAAGGPEYQLQESVVADQISLLSREWGFAEQLVLYLKVAELLSSGLQSAIDQIRAGKLCLSSTVKQVVRRLNELYKASVVSCQGLSLRLQRFFLDKQRLLDRIHSITAERLIFSHAVQMVQSAALDEMFQHREGCVPRYHKALLLLEGLQHMLSDQADIENVTKCKLCIERRLSALLTGICA
enhancement of transcriptional activity of overexpressed GLI1: no effect | enhancement of transcriptional activity of overexpressed GLI2: no effect | stimulation of GLI-dependent luciferase activity: 3.4 times

B2: STK36: human serine/threonine kinase STK36, mammalian orthologue of dFu, expressed from STK36pcDNA3.1 (protein, UniProt Q9NRP7 1-1315, looked up)
Serine/threonine-protein …: MEKYHVLEMIGEGSFGRVYKGRRKYSAQVVALKFIPKLGRSEKELRNLQREIEIMRGLRHPNIVHMLDSFETDKEVVVVTDYAEGELFQILEDDGKLPEDQVQAIAAQLVSALYYLHSHRILHRDMKPQNILLAKGGGIKLCDFGFARAMSTNTMVLTSIKGTPLYMSPELVEERPYDHTADLWSVGCILYELAVGTPPFYATSIFQLVSLILKDPVRWPSTISPCFKNFLQGLLTKDPRQRLSWPDLLYHPFIAGHVTIITEPAGPDLGTPFTSRLPPELQVLKDEQAHRLAPKGNQSRILTQAYKRMAEEAMQKKHQNTGPALEQEDKTSKVAPGTAPLPRLGATPQESSLLAGILASELKSSWAKSGTGEVPSAPRENRTTPDCERAFPEERPEVLGQRSTDVVDLENEEPDSDNEWQHLLETTEPVPIQLKAPLTLLCNPDFCQRIQSQLHEAGGQILKGILEGASHILPAFRVLSSLLSSCSDSVALYSFCREAGLPGLLLSLLRHSQESNSLQQQSWYGTFLQDLMAVIQAYFACTFNLERSQTSDSLQVFQEAANLFLDLLGKLLAQPDDSEQTLRRDSLMCFTVLCEAMDGNSRAISKAFYSSLLTTQQVVLDGLLHGLTVPQLPVHTPQGAPQVSQPLREQSEDIPGAISSALAAICTAPVGLPDCWDAKEQVCWHLANQLTEDSSQLRPSLISGLQHPILCLHLLKVLYSCCLVSEGLCRLLGQEPLALESLFMLIQGKVKVVDWEESTEVTLYFLSLLVFRLQNLPCGMEKLGSDVATLFTHSHVVSLVSAAACLLGQLGQQGVTFDLQPMEWMAAATHALSAPAEVRLTPPGSCGFYDGLLILLLQLLTEQGKASLIRDMSSSEMWTVLWHRFSMVLRLPEEASAQEGELSLSSPPSPEPDWTLISPQGMAALLSLAMATFTQEPQLCLSCLSQHGSILMSILKHLLCPSFLNQLRQAPHGSEFLPVVVLSVCQLLCFPFALDMDADLLIGVLADLRDSEVAAHLLQVCCYHLPLMQVELPISLLTRLALMDPTSLNQFVNTVSASPRTIVSFLSVALLSDQPLLTSDLLSLLAHTARVLSPSHLSFIQELLAGSDESYRPLRSLLGHPENSVRAHTYRLLGHLLQHSMALRGALQSQSGLLSLLLLGLGDKDPVVRCSASFAVGNAAYQAGPLGPALAAAVPSMTQLLGDPQAGIRRNVASALGNLGPEGLGEELLQCEVPQRLLEMACGDPQPNVKEAALIALRSLQQEPGIHQVLVSLGASEKLSLLSLGNQSLPHSSPRPASAKHCRKLIHLLRPAHSM
enhancement of transcriptional activity of overexpressed GLI1: no effect | enhancement of transcriptional activity of overexpressed GLI2: 1.6 times | stimulation of GLI-dependent luciferase activity: failed to activate
